The DeepSol protein solubility set

Experiment: soluble on expression in E. coli; label from the status in PepcDB or PDB records

Sequence	soluble on expression in E. coli
MVVVCASHIQPAIICRFTWLRFLMEIILIRHGKPTSANNPVLNAVDFTKWVRRYNFSDVSTNSRPDSILDEYKSHYIVSSDLERAIHSASIYTGQSPELTSKLYREMEIPRYKFPLRFKAMTWVYINRAFWMLGLKGSFESYRQAKIRAELASDHLVELAREQDKVILFGHGYLNLHIRRSLIKKGWKLNSKSNGFWGISSLEGLEHHHHHH	not soluble
MVYSWQHCPNTRSNTEAMMAHDWDEYAANWEKDPATHAFAQSVFEHLTKILSLQGKHILDFGCGTGLLSQRMSPFARDIVALDSSEAMIEELDRKELRNVEPVVDCLTRGLVAQHPAFRKQFDLVVASSVCAFLPNLQDVTDIIFTLVDEGGYFVHFDWLADGKSEIGLSTTEIESVLRNAGFSAVETRVAFDVTTAQGTQPVVVGIARK	not soluble
MVYVIGMGARGREGLSLKALRRLEEAEVLIGGRRHLAHFPDHPGEKVPVQGPLEALLDLAEARLKEGKKVAFLASGDPLFYGIGKRVLERFPEAEVHPAPTAFQEAFARLKLPWDQARFFSLHGRPLGGVLLELSLSPLSVVYTDPEHTPAGIARALLEMGVDARAHVAERLGEEDERVRSFAGLKEVAEERFLDPNVLILEAKGPLPPRLGFFPDEAFEQRMPKKGLITKREVRLLALGLLGLPPDGVLWDIGAGTGSVGIEAARLAPWGEVYAVEKNPESWPHIVENARRFGAFNLHLVKGEAPEALKGLPAPHAVFVGGSGGELEEILRVSLKALRPGGRLVVAAITLENLLAAYGFLKGTGLPLEGFQVQASRVVPLARYHRLEAQNPITLLAVTKEGA	soluble
MWNFTLISKVKISREVTMIASKFGIGQQVRHSLLGYLGVVVDIDPVYSLSEPSPDELAVNDELRAAPWYHVVMEDDNGLPVHTYLAEAQLSSELQDEHPEQPSMDELAQTIRKQLQAPRLRNLEHHHHHH	not soluble
MWSTIFFVFSTFVLIVDSGSVGLCRTECIEQNSRKIVRVHLKDQLVMAGLCNNNTQQTGSIVTPYVCHRNIGLWTLDELDEEGTVKFETLCPTPEQYPLELRATCPRVDAQHDDTPNEMDIDDYPNSGDTPLSVV	not soluble
MYDTEIPYEGKISIYTYFCKECGYRKTEVYSDEKRDPKKITIRIENPDDLRIIVYRSRRADVYIPEMEASIDSAEYSNGEITTIEGIIYRIGEKLDLLAADDQNNKKIASLRKRIDGIINGKFESFTLIIMDESGKSVVHSDKAMVESMD	soluble
MYEEFRDVITFQSYVEQSNGEGGKTYKWVDEFTAAAHVQPISQEEYYKAQQLQTPIGYNIYTPYDDRIDKKMRVIYRGKIVTFIGDPVDLSGLQEITRIKGKEDGAYVG	soluble
MYFMKSKNRFLLISLLSFSTSVFADVNLYGPGGPHVPLIKVAESFEKSQSKRVNITFGPQATWNDKAKKNADILFGASEHSALAIAEGHSERFSKFNIHPVFMREAIILVKKGNPKNIKGMADLLKPGIGIVVNDGAGVSNTSGTAVWEDSVGRMKNVEKLQAFRSNIHVFAPNSGSARKAFVDGEDIDAWITWVDWAIANPTIGDMVRMEDEYRIYRDFNVVLAKNPSSEAIDFFDYLTKSKDAEAIFQHYGWFK	not soluble
MYFRLESQFSINGSMIVLINGAEPSLESHVAFYETGTFTVEQGEMRMIELKYQSTMENIHAFLDVVTGAIDIHLSPCKSQETDIFYSNLAAGSHRIDIDLKTMMDNVSVLLKKNVSKLHKAKR	not soluble
MYHLKKILEVKQVNKTYSMDGNANYHVLKNIDLEVYEGEFVSVMGPSGSGKSTLLYNISGMDQMSSGSVKIDSKELSCMKEEELAKLRLTEIGFIFQQSNLLRNLNLFDNIILSAYLAKCESKKIVNKRALELMENMGISDIASHYITEASGGQLQRVSICRALINNPNIIFADEPTGALNLKSTEEVMQILLNINRDGTTIMLVTHDVKVAAKTERILFMADGEIVSEIQLGKLRNDDLKAREEKLLNWLAVLGF	not soluble
MYHNSSQKRHWTFSSEEQLARLRADANRKFRCKAVANGKVLPNDPVFLEPHEEMTLCKYYEKRLLEFCSVFKPAMPRSVVGTACMYFKRFYLNNSVMEYHPRIIMLTCAFLACKVDEFNVSSPQFVGNLRESPLGQEKALEQILEYELLLIQQLNFHLIVHNPYRPFEGFLIDLKTRYPILENPEILRKTADDFLNRIALTDAYLLYTPSQIALTAILSSASRAGITMESYLSESLMLKENRTCLSQLLDIMKSMRNLVKKYEPPRSEEVAVLKQKLDRCHSAELALNVITKKRKGYEDDDYVSKKSKHEEEEWTDDDLVESL	soluble
MYKIVNNDQNKRLVIAKSKAQSLRKTFLHSCLPKMPLSQPWSHSFEICQEHNTQKRISYSRLHRSIGRLRVFLTDDNSILKSTNKFIKILIQQIAFHNLFRWYCRWNDEFQVDEHLDHFCRKDKAQEVFNVSWLVLKFNVFKLYTQKFLYTYSFITIFRLSFRFPTTFRSIF	not soluble
MYKNNFENYMNLDIYKDIEEIRAALEHLGAKKILLQLPDGLKPEVYHYFNYLSANYNVVISSSPVYGACDIGPSSIYDKVDAIVQIGHSPMPNVKYPKPTIFVEHHYNARISNIDTSLLEGKYDRIGLLFSVQYKEVADEVRKIFENKGFTVIIGKKDGRMAYDGQVLGCNFSSVHSISYDVDAYVLVSTGQFHGIGAQLSTEREVFVLDLNDYKLHSMKDEADKFIRKRYAQIFRAKEARKICIISDTRIGQRRERLARIILRQVQQMGLEGILAVTDNISNQDLENMRCDAVVYTGCPRVPIDDQQKFTMPLLTPAEFEMGFVKNSNRYVLDEIVSVDDPADKLEHHHHHH	not soluble
MYKQLEKLITLTNNDLNLVNRRFGQRTDITSEQLELLRILFNYDRLSQYDLTMKISREQSIVSRWIKKLVLKGYITSQQSSEDLRCKELILTDQARTLISQINNARCELIEARCQCLSEVELDNLNQLLDKLNQRRISL	not soluble
MYKRAEYHVITDRLKDRRRFIQVVMGARQIGKSTVVKQVLKDLDAPYQFFSADNVPTVNGAWISDCWAAVRSLKEAKEWESIILVIDEIQKIANWSEVVKKEWDDDTFHDRNIKVLLLGSSRVLLEKGLSESLAGRFEEIRMSHWSYQEMKDCFGFSLNQYLFYGGYPGAASLTDDDDRFSQYIQAAIIEATINKDILMGTPIGKPALLRRTFELGAAYSGELLSLNKMLGSLQDAGNTVTLAGYINLLDESGLLCGLQKFGYDMARRKASIPKLQVYNNALKMVYSPFTFEQAMLDRKSWGRIFESGIGAYLVSQAFVHRFEVFYWRERDDEVDFVLRKKGSVVAIEVKSNAEKRTDGLDKFSHSFKPQSAFILGDGGVRAEDFLSMDIRKLF	not soluble
MYKRYVAQIIFALTILISAPSWAETEETGPKLAYFTLEPDLTTNFYTKGKKLGYVQVRIDIMVMSQQDLAIVEHHQPLIRDAVIELLGKQTEDTIKSLSGREDLRKTLVKELNETLLPETGKTVIADLLFTKYLYQ	not soluble
MYMRAGDGRVHGIYSSTDVANLILKTTGTALMDKKKLHKLLYYMQGWTLAALGRPAFANDLQAWVDGPVSVGMRRDTHYATCFEVANRPLSNPLAPQDRDLLALMYLIAPFYAQQQTQALVDSTHAEAPWLDARGGLPPPMPIPARRSLTTHCTATFHSTPASWV	not soluble
MYMTGHSLGCYLAQIAAVEAYQKYPDFYNHVLRKVTTFSAPKVITSRTVWNAKNGFWDVGLESRKLAVSGKIKHYVVDNDNVVTPLIHNNRDIVTFTGNSRFKHRSRGYFESPMNDIPNFNIGKQATLDKHGYRDPKLDKVRFFKKQALPRSSSQPSAEPMENIASGKQVTQSSTAFGGDARRAVDGKVDGNYGHNSVTHTNFQSKPWWQVDLAKEETIRQINIYNRTDTAQDRLANFDVILLDSSGKEIE	not soluble
MYNGILPVYKERGLTSHDVVFKLRKILKTKKIGHTGTLDPEVAGVLPVCIGNATRVSDYVMDMGKAYEATVSIGRSTTTEDQTGDTLETKGVHSADFNKDDIDRLLENFKGVIEQIPPMYSSVKVNGKKLYEYARNNETVERPKRKVNIKDIGRISELDFKENECHFKIRVICGKGTYIRTLATDIGVKLGFPAHMSKLTRIESGGFVLKDSLTLEQIKELHEQDSLQNKLFPLEYGLKGLPSIKIKDSHIKKRILNGQKFNKNEFDNKIKDQIVFIDDDSEKVLAIYMVHPTKESEIKPKKVFN	soluble
MYPADFASQLNVLTLAEMKKTIHDILDFRDEDIWMLFGTLPVFPCLKDDEDQKLLSRLRNANNVTTRNDPDGRSRLNVNVFTGNVIVTDFGDETGTISNIQKDKLTDVFDKWLSSDLAKSLNCHCSEFSCLGPNVLVKNMYYPNMDFKDNERHMHKQPQIIQF	not soluble
MYSGFTREKSDLRTEDVEITKEPFTLLIMGIEDYATDGQNGRTDSLMFATVNPKTQKISLMSIPRDSRVPIVGKNKEDKINAAHAYGGEEMAIKTVEGFLKVPVDHYVKIDFQGFKGIVDAVGGVTVDVPFDFWERSDVDYYKKIQFKQGQQELNGEEALAYVRMRKQDPNGDYGRAARQRQLLAAVAQKLNSTSTVFKIKDLTSVVGKYIKTDIPISDGLALYKKLSGFDPSTIQTLKLEGEDKKIGGIYYFLPDPNGVEAVRNEIKKELGEKVTTQENSTTKTESTPSSNSNSNEKAKKETNRNQNKTPTDPPPSTNAHAEWIMRNQQLEHHHHHH	soluble
MYSIEVRTHSALHVVKGAVVKVLGSEAKWTYSTYVKGNKGVLIVKFDRKPSDEEIREIERLANEKVKENAPIKIYELPREEAEKMFGEDMYDLFPVPEDVRILKVVVIEDWNVNACNKEHTKTTGEIGPIKIRKVRFRKSKGLLEIHFELLELENPSLEHHHHHH	soluble
MYSKIIERELETLKTIFQEASRANTHYEFISVVGKAVSEFLGSEGYRIEWDGRGSAKGNEVVLEIRINTYAKVNLYFPLKKGRKLSKVEEEFLKFVKEVSERIAEKITSYTIYKTLLDSYPFVAYLVEAEPPYPQKILYVTPSLEKWLGWKPEEISKDW	not soluble
MYSVLIPVDRDEARASNQASYVSQLPDATDTVEATVLYVVPPDEFADAAEVAFDDIDAAVQAANQLEAAGVSVTRMVDDGGVAQQIVRTATELDSDEIVVGGRKRSGVSKVLLGSTAQDVLLSAERPVTITGESVVL	not soluble
MYTAENAPGVAVLLSGDADVPGPLTGLPTHQDNLDTVIGRYSRLIVVGADADLGAVLTRLLRTDRLDVEVGYVPRRRSPATRAYRLPAGRRAARRARCGVARRVPLIRDETGSVIVGRAQWLPAEEQALIHGEAVVDDTVLFDGDVAGVCIEPTLTLPGLRAAVDGAGKWRRWIGGRAAQLGTTGAAVLRDGVAAPRPVRRSTFYRNVEGWLLVR	soluble
MYTITDIAPTDAEFIALIAALDAWQETLYPAESNHLLDLSQLPPQTVIALAIRSPQGEAVGCGAIVLSEEGFGEMKRVYIDPQHRGQQLGEKLLAALEAKARQRDCHTLRLETGIHQHAAIALYTRNGYQTRCAFAPYQPDPLSVFMEKP	not soluble
MYTKNFSNSRMEVKGNNGCSAPIIRKPFKHIVLTVPSSDLDNFNTVFYVQPQYINQALHLANAFQGAIDPLNLNFNFEKALQIANGIPNSAIVKTLNQSVIQQTVEISVMVEQLKKIIQEVLGLVINSTSFWNSVEATIKGTFTNLDTQIDEAWIFWHSLSAHNTSYYYNILFSIQNEDTGAVMAVLPLAFEVSVDVEKQKVLFFTIKDSARYEVKMKALTLVQALHSSNAPIVDIFNVNNYNLYHSNHKIIQNLNLSN	soluble
MYTPLYRPRYPEGLDPGIQHGVLRLLNPDPRVGEAEHRLENLLEPPYGGPPPPYYQSRPLRPYCYVSAEAGLNNLDPAVPRFVEVLSQPLVYLSPQETLV	soluble
